From the NTF2 design screens of Basanta et al. (2020)

Assay: protease stability score; higher = more stable; yeast display proteolysis, trypsin and chymotrypsin;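 further: log10 excess protease needed over predicted unfolded state with 0 meaning unfolded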

| Sequence | protease stability score |
| --- | --- |
| DEEAHKVAESFIKAYSNGDEDKLKKNVDPNARIQIGDKYIHGMDTFVKEQRKRREQSRYHMSITHVDVQGNEVDVRFKAESEHDGQPHTNRMSVNFTFHNGNIKNVDIQYEP | -0.307 |
| DEEAIDLANRFLEARKTGDPDKAREQADPNATFKYGDREVHGMDEMARQIEHEHKESRVNIDVDRVTDTGDTAKFDMSVRENHNGQPHTVKMDMVVKAHNGHIKHLSYTLNG | -0.514 |
| DEEAIHRMEEFIKNVNNNNEEKLKELADPNVDAHIGDKVIHGMERIVTELVKELENIDIEYKDMRVEDRGDNIHIQIRAIFHHNGKPQEHTQIIDVQVENGKVKKMRRSSDS | 0.185 |
| DEEAIKQAKKLLDALRTGDEETLKEMIDPNARIHVGDKEVHGREEAAEQWQRRQEEQSMDWKVKSVENTNGRAEFRATATRRHNGQPDHFDFTWRVQAHNGRVKHMQVETRG | -0.262 |
| DEEAIKVQEEIQKQEEKGNEENVEKNMDENVKLRVGDKDLEGRSEVSKDVRRRKDEMRFQYLHMSYHSNGETIRVNIEMSSNHNGRPDTRRFDATFHIHNGKLTEYSKESSQ | 0.161 |
| DEEAKDNFETAFKAEMTGDPQKYKKNVDPNAKVTIGDKTVRGREEVAKQLQHRRKESHVEFTDMKVKVQGDKVVVKLKAVDNENGRPDTAHYDIQFHASDGRITDLKVNKTK | -0.049 |
| DEEAKEVLERWHTAIKHGDPNLAKEMADKDVRINVGDKSFSGMEQNAKDMHRERNELEYEILSVRFEVHGDKVKVEFHATRNNNGNPDTKKFDLTATASNGKATRVTLQSSG | -0.538 |
| DEEAKKLADEWADAVNKNDEKSLKDLVDPNAKFRVGNQEYHGREQLEEFLSKWMSEWRHSLEDWRVNVQGDTVVLTAKLNVDVNGKPARVDAHVEFVVHNGRIKSQSEQFDEQRLRDNKS | 0.521 |
| DEEALEILRDAWEALRTGDHEKLRELFDKNANVRIGEKRFEGSDEIMRDWLTTIRNIRFHIHDIKFTVNGDKAVVRVNVNFEHNGKPQSDVYRMSAEADNGRIKSADADRDK | 0.391 |
| DEEALHILERFLKLMETNDEETLRDLVDPNAENRVGDKTVHGREDFQREVHTMKKQWRVRFRHIDNQSRPNEAVVRANVNNDINGRPITEDVVFRADFKNGKLKSLHIQMPEEYKKELDK | 0.455 |
| DEEALHLATQLYTNWRNNNPEEVVKLLDENARINVGDFNVTGRNNVRSTLEHLNREMHFEMRISSVDDHNGRAHLTVEARKNINGQPRNVSMKMEVQFHNGKIQQIVAHMPEEDIRTLQS | 0.811 |
| DEEALKFAETFLEVLHKGNPDDLRRLIDENVEIKIGDHEIDGMDNAVKQLHTRIKEINMHIKVDSMKAQGDSIKIHFTREVHRDGRPDTRHATLIMRFNNGELQRFQVDDRQ | 0.335 |
| DEEALKHAKKLLNIITNGNPSEAQKLFDPNAKAHIGDQTLTGREDYVRDLQEKKDRMRYKIKSMDAQTDGEKVRFDIKYDFNINGQPRHASVVIRLKLHNGKIVEIRVQIDPEQLKQHRQ | 1.09 |
| DEEALKKLQDILRRNDQDKMNKMIDKDVRVVIGEHEYRGKRNVQEALKREYEHADRFEVKHIEDHGDKLHVDVVLRVDGRDIRFVVVIDVHNGNIRNVKVDFTDEDTQRDFQRQLD | 1.01 |
| DEEALKKMVDTLLKYVEQGNIKDIQQILKENVEFKLGDTEYKGVEHAKRDVKKLKDAGVEVHVKKTEVEGDTAHVETVWHAGDYEMHVTVQYVVRGDKVEKVEVRWSEEAKKALKVG | 0.24 |
| DEEALKLLESLMEAVKTNNEERLKSLVDPNAHFQYGDKTLHGMEDWAKEVVRRMREIHVEWEWHTWSVHNGQIVVDVHARLEINGRPVHWKERIIVELENGKVKSMVFQISEEEKKHIDG | 1.6 |
| DEEALKNVKENLEDGDWDNLAKQADENATWVYGEKRVHGRRDLKKYAEAMKRQIDHWSIRSITTRGNKASVNAEVQVNGHRRSFHIEVEVENGHIKHWNMNFTDPTDERKVLKILE | -0.017 |
| DEEALKNWEHQLRAHEQGDENRLKELADPNVRYRVGNHEIRGMQQRVEDASRVKEHMRVQMSIQEVEVRGDKFDATATAEYVVNGRPQQITYKFSFHAHNGKIKNLDVRLDEDQQRKLEK | 0.184 |
| DEEALKQAEEILTQRQTGNPQEVMKNMDKNVKFDYGDKTIHGKENLEKDVEKERTEMRYEIKSVEFRARGNKVVADFRATFNVNGHPFSVRVVFIAHFEDGKIKKATENVSEEQRKKMKS | 0.084 |
| DEEALKRVEKFWEALNTGNEDELRKQLDPNARIRIGDKDIQGREDMAKWVRRVNRQMKMTVTIEDMQTRPGRAEIDAKASVNHNGRPNQHDVKLSAEFHNGQITSLTVQLKG | 0.592 |
| DEEALKVLKEWIKAVETGDEERIKELVDKDVTVQVGDKVIRGREQVAKTVRKEREEMRVEINFDRLHADGDRVSAEFKVVEETNGRPNTKKQRMSARVHNGKFKSMEIQDDG | 0.205 |
| DEEALNLFHRMINAIQENDPDTLHRLVDPNARIQIGDHDIHGMKTYVREVEKTLRSMRIKFDIKSVDVTGDKVVIDEKVDFDINGKPVHNKVEMRIKAHNGTVKHLDWKVPEDELKKIEE | -0.232 |
| DEEALNNLHEFFKHWNTGNPHELMKLADPNVRFQVGEKVIHGREEFMKDIKRIREELRQEIDVRDVKVQGEKLIVKATRSEERNGKPSSDTIHMTARVHNGRIKSVDIKSTS | 0.435 |
| DEEAMKRFQELLDVLRTGDENRAKKLMDENVHLLVGDKEINGRDHAAKTMAQTYREMRIEYKTVKRDVTNGVVHVRMRYVKEHNGTPNDRVVLVEVRFHNGRLKVLNRNEKD | 0.352 |
| DEEAMKVFEEIMRAIEQGDPDRIIENADEDVRFDVGDKRLHGREKAAKDLVDFLHHQRTHIRSYDTSVSGEKLTLDVDMVNQNNGNPNSKRYTVDAHVHNGKLKSVKETDDQ | -0.27 |

| Sequence | protease stability score |
| --- | --- |
| DEEANDLFRQIQTAENDNNPDEITELFDENATFRVGDRVIKGREKYAHKVVENLQKWRFTWDRIDVKARNGHARVTIRMTFNVNGKPDSYQAVMHLQFSNGRVQEIHMDIDPRKAKELLK | 0.124 |
| DEEANEMAKSYLEAKTRGDPRSAKELADKDAEFVVGDKTYQGMDENSDNMRRERDEQRTKVKILHLDDRPNHAVIKYRVEVQTNGQPRTKNYELNLQYSNGKIKYVRVEDRK | -0.027 |
| DEEANKIAKKFQEALRKGDENRLKELVDPNVRMEYGDHSIHGREELEKDVRKKKRDMRVKITLDHMEDNGSEVTAKVRWTQEHNGTPDSTHFSARFDFTDGRLKHYDQNDSG | -0.009 |
| DEEANKNMKDMWRTGDWKQIAENADEDAHYQVGDKKFSGREQVQTFIELLQNRVDDQNIRDMEDKGNEIDIEFTVVINGRKLVLHATVQAHNGRVKSWTVKVTDRDDKRKLDEALR | 0.307 |
| DEEANKVAKKLWEAIDHGNKEQAKELADPNAKAHVGDKSIHGMDTFVTWIKEIFDTMSFEVRIEDMKVHNGRLSANVRATFDINGQPRHQQARFKMDIHNGKISKVVIEMPKEKWKTILR | 0.97 |
| DEEANKVIDRLLKAIKHNNPDQAQHNMDEDVRIRIGDQEINGREQAKKEIRKRNEKMRINIDEVTLNEHPNKVRIQYRYKVDVNGRPVRNSAHMEARVSNGKVKEIDVRVSEDQKRHEER | 0.018 |
| DEEAQELAERVFKALQTGDPDTLVKNMDPNVRLDVGDKKIQGREEAKKHADRLRHEQKVEYDSYEVRVHDGRVVVRLHWKFTVNGHPRTLTLTVEMKAHNGKVKHFSQRVPEDVLRKMKS | -0.049 |
| DEEAQEVVEDMLRAIDKGDEDQIRRNVDKDAKVKVGNHELHGREQIAKFLSKERNEIEQSFQYESVTVDGDKIKFQFEMSRNVNGKPMRVSAQAEADAHNGKIRHFKVNVDTDVERRIDS | -0.165 |
| DEEAQEVYHRLRKVLENNNPKEFEENVDKDVRFNIGDKRIHGREQASKDWKSRMEEQHRKITRVENQSHGNEFEVRAKVNYDHNGQPRQQDLSAHVVAENGKLKMATYEVRK | 0.018 |
| DEEAQKAAERVWKAIERGNEEELHRLIDPDVRIKVGDKDYHGREHYVESVVEIMTTIRFTIHRMEIKVSGERVIIEYHYEFSVNGQPDTMRVIVYMVAHNGKVKNIHVKMSPEKRDRFRE | 1.05 |
| DEEAQKHIQQMFHAIDHGNPEKVKELADPNVNIEVGDKRYHGMDTWVREIEKTKKEMRVSVEHVKVDDRNGRAKIDVIMNNEVNGKPVRDRKTATADVHNGKIKSLQYQFSEDQKKKDEG | -0.472 |
| DEEAQKHLREFFKNQETGDPDKLMEMVDENVHWQVGDKTIEGRDTMKQDFDRRRKELRYHVDIKKVNAHNGRIRARATFHNEHNGKPKSFQAIVVAVITNGRIKSIHVQKRQ | -0.037 |
| DEEAQKKVEEWERAIEHGNEQQARELADKDVRIEVGDQRVRGMEDIARTQVRKQREITRHVRRFDAHATGDKIRVELVFEVHHDGQPRHQKYELRMVMHNGRVHSVRVETRR | 0.412 |
| DEEAQKLLDMLRKAEQTGDEDRVRQLADEDVKVRIGDKVIHGREEWARHVRRERNEMRFKIQDLKVDVQGDHLSVKYTAHRDHNGQPQSDTYHYTLQMHNGRIKHLNVTEEK | -0.004 |
| DEEAQKQAEHLIRNLEQGNEDQIERLADPNARFQYGNKEINGREEMSTWVRRYKKQARLEIKSVSADAQGDKITVDVHFVIDINGRPSTMRVNVVMSIDNGSINHMVFEIDEEQEKELNK | 0.202 |
| DEEAQKQFEEFLDVLETGDPKRLQDNMDEDARVVIGDKTITGREEAAKEWHKIRQEISVEIKHVHMEAQGDKLNATLDVVWNVNGRPHRFKFVIIMDFHNGRIKQIEIRMDERHLKKLRT | 0.499 |
| DEEAQKRAEELIRILQTGDPDKLMEMFDKDAHATIGDQTVRGREDMRRRQKELKETMDVKLDITDVKVTGEKIDIRIKATFNYNGQPAEDTIVFIIQQHNGRVQRFEVRIDEDVLRQLKK | 0.184 |
| DEEAQKRAQTFFHILEHGDPKKLSKLFDKDAKFVVGEQRINGMQQYEQWFRDVYKKIRVTMKLVSVHVTGNKIDIKAKVEWHVNGRPLTFDLDIKINFHNGKMKEAVFHVDSDFLRKLKR | 0.63 |
| DEEAQKTAEDFLRAFQDGNHEQLLKLMDKDAQAQYGDQRLHGREKLRQHIYELLKNIRLEYSIDDVKVDGNNVRIHMQYEAEVNGQPVKDKAKVDIVFHNGKIKTFMVHFSEEYVQTVRS | 0.903 |
| DEEAQRLLEKAMKALEQNNPQQFVNLLDPNATMIVGDKVYHGRESARKALDDIRSTMRVEVKDVKASAQGDKVQARMRVILDHNGKPSDRTQNITVRVHNGKMTSVELKTDT | 0.88 |
| DEEAREILRRFFTALNTNDEDQLVELVDKDVKIQVGDKEIHGREELKEHQVESYRRSRVDFRVTDIKASGDKVTAKIVVSRESDGQPRKTTQRMEFRFENGHMKHVHEDSDG | 0.064 |
| DEEARKEIKKAARAYKTGDWQELVHQMDEDVKVEYGDHKIDGHEQVQKWVDENRKQLTMSVKSLSVELSGNTASVDMKHDARHNGRPRTQTAHIEIQAHNGRLKRVKIEYTQ | -0.178 |
| DEEARKLVHRILEAWKHGDEEHFKEQFDPNVDVDVGDKRYHGRHTIATRVQRELDEIDIRIEVHHITVEGDRADMDATVVLNINGKPVHVRVTWVFQITNGVAVYMQLRVSEDQRREQES | 1.15 |
| DEEARNVFEEILKAIRHGDPDHAKNLADPNARIRVGDKKVDGMEQWATEMHHNWQEIRIHMRITSVDHQGEKVRLHLSRTSNHNGRPRKADIDLEMVATNGKLKSQKHSQKK | 0.2 |
